Series [1] addresses hSTAU1^55-HA3 (human) (UniProt O95793). Nature of the series: co-IP.
Series [2] concerns the target hSTAU1^55(R)Δ(SSM-‘RBD’5)-FLAG (human). Nature of the series: co-IP.
Series [3] concerns the molecule itself. Kind of series: SEC. Background: Size exclusion chromatography separates by hydrodynamic size, large species first.
Series [4] deals with the molecule itself. Kind of series: AUC.

Sequence of hSTAU1^55-HA3 (human) (O95793 82-577): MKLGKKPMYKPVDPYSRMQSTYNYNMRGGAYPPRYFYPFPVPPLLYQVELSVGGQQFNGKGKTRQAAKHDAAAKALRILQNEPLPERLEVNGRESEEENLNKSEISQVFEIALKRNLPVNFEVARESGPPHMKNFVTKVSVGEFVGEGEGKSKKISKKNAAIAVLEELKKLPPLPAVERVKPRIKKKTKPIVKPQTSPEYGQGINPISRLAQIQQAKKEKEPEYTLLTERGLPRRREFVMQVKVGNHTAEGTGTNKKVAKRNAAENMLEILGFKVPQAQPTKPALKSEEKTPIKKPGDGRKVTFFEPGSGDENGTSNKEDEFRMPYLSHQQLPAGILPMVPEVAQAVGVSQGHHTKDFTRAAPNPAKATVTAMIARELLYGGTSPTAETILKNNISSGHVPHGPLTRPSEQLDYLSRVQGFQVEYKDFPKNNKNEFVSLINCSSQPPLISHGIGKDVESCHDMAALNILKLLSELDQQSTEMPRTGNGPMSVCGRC

Regarding “hSTAU1^55(R)Δ(SSM-‘RBD’5)-FLAG (domain or fragment)”, the level of co-immunoprecipitation as percent of that of WT or Δ(C-Term) in series [1] was determined as 10%. “hSTAU1^55-HA3 (from UniProt O95793-2 1-496) (natural protein)” returned a level of co-immunoprecipitation as percent of that with WT or Δ(C-Term) in series [2] of 10%.

B1: hSTAU1-‘RBD’2-RBD3 (amino acids 43–173) (domain or fragment)
chain: PLLYQVELSVGGQQFNGKGKTRQAAKHDAAAKALRILQNEPLPERLEVNGRESEEENLNKSEISQVFEIALKRNLPVNFEVARESGPPHMKNFVTKVSVGEFVGEGEGKSKKISKKNAAIAVLEELKKLPP
In general, stoichiometry N refers to a count of units in the complex or per binding partner. Consider B1, for which the “stoichiometry N” value in series [3] was 2.

B2: hSTAU1 SSM-‘RBD’5 (hSTAU1 amino acids 367–476) (domain or fragment)
chain: KATVTAMIARELLYGGTSPTAETILKNNISSGHVPHGPLTRPSEQLDYLSRVQGFQVEYKDFPKNNKNEFVSLINCSSQPPLISHGIGKDVESCHDMAALNILKLLSELD
For orientation: Kd means the free concentration of one partner at which half of the binding sites on the other are occupied at equilibrium, for simple one-to-one binding. Read a high Kd as a looser complex. The molecule B2 registered a Kd in series [4] of 79 ± 9 µM. For the same molecule, the “stoichiometry N” value in series [3] amounted to 2.

B3: cellular hUPF1 (natural protein)
chain: MSVEAYGPSSQTLTFLDTEEAELLGADTQGSEFEFTDFTLPSQTQTPPGGPGGPGGGGAGGPGGAGAGAAAGQLDAQVGPEGILQNGAVDDSVAKTSQLLAELNFEEDEEDTYYTKDLPIHACSYCGIHDPACVVYCNTSKKWFCNGRGNTSGSHIVNHLVRAKCKEVTLHKDGPLGETVLECYNCGCRNVFLLGFIPAKADSVVVLLCRQPCASQSSLKDINWDSSQWQPLIQDRCFLSWLVKIPSEQEQLRARQITAQQINKLEELWKENPSATLEDLEKPGVDEEPQHVLLRYEDAYQYQNIFGPLVKLEADYDKKLKESQTQDNITVRWDLGLNKKRIAYFTLPKTDSGNEDLVIIWLRDMRLMQGDEICLRYKGDLAPLWKGIGHVIKVPDNYGDEIAIELRSSVGAPVEVTHNFQVDFVWKSTSFDRMQSALKTFAVDETSVSGYIYHKLLGHEVEDVIIKCQLPKRFTAQGLPDLNHSQVYAVKTVLQRPLSLIQGPPGTGKTVTSATIVYHLARQGNGPVLVCAPSNIAVDQLTEKIHQTGLKVVRLCAKSREAIDSPVSFLALHNQIRNMDSMPELQKLQQLKDETGELSSADEKRYRALKRTAERELLMNADVICCTCVGAGDPRLAKMQFRSILIDESTQATEPECMVPVVLGAKQLILVGDHCQLGPVVMCKKAAKAGLSQSLFERLVVLGIRPIRLQVQYRMHPALSAFPSNIFYEGSLQNGVTAADRVKKGFDFQWPQPDKPMFFYVTQGQEEIASSGTSYLNRTEAANVEKITTKLLKAGAKPDQIGIITPYEGQRSYLVQYMQFSGSLHTKLYQEVEIASVDAFQGREKDFIILSCVRANEHQGIGFLNDPRRLNVALTRARYGVIIVGNPKALSKQPLWNHLLNYYKEQKVLVEGPLNNLRESLMQFSKPRKLVNTINPGARFMTTAMYDAREAIIPGSVYDRSSQGRPSSMYFQTHDQIGMISAGPSHVAAMNIPIPFNLVMPPMPPPGYFGQANGPAAGRGTPKGKTGRGGRQKNRFGLPGPSQTNLPNSQASQDVASQPFSQGALTQGYISMSQPSQMSQPGLSQPELSQDSYLGDEFKSQIDVALSQDSTYQGERAYQHGGVTGLSQY
With B3, in series [2], the level of co-immunoprecipitation as percent of that with WT or Δ(C-Term) was found to be 10%.

For the origin of these results see publication PMC4096160 (Nature structural & molecular biology, 2013).
